Test results: US20160185865A1 (Dana-Farber, published 2016)
Substitutions are numbered along the chain they refer to. Numbers in names are those of the source.

B1: KW0761 (humanized KM2760 antibody) (antibody, V domains shown)
VH: EVQLVESGGDLVQPGRSLRLSCAASGFIFSNYGMSWVRQAPGKGLEWVATISSASTYSYYPDSVKGRFTISRDNAKNSLYLQMNSLRVEDTALYYCGRHSDGNFAFGYWGQGTLVTVSS
VL: DVLMTQSPLSLPVTPGEPASISCRSSRNIVHINGDTYLEWYLQKPGQSPQLLIYKVSNRFSGVPDRFSGSGSGTDFTLKISRVEAEDVGVYYCFQGSLLPWTFGQGTKVEIK
B2: h1567 VL-CDR3 mutant M1 (H105Q) (Fc fusion, not shown: a dimerising Fc or GST)
scFv: QVQLVQSGAEVKKPGASVKVSCKASGYTFASYYMHWMRQAPGQGLEWIGWINPGNVNTKYNEKFKGRATLTVDTSTNTAYMELSSLRSEDTAVYYCARSTYYRPLDYWGQGTLVTVSSGGGGSGGGGSGGGGSDIVMTQSPDSLAVSLGERATINCKSSQSILYSSNQKNYLAWYQQKPGQSPKLLIYWASTRESGVPDRFSGSGSGTDFTLTISSLQAEDVAVYYCQQYLSSYTFGQGTKLEIK
B3: Antibody 2-3 scFv-Fc (Fc fusion, not shown: a dimerising Fc or GST)
scFv: B2 scFv with Y32A, Y33W, Q228H, L231M
notes: also called Ab2-3 scFv-Fc; Mab 2-3
B4: mAb2-3 (Ab2-3IgG) (antibody, V domains shown)
VH: QVQLVQSGAEVKKPGASVKVSCKASGYTFASAWMHWMRQAPGQGLEWIGWINPGNVNTKYNEKFKGRATLTVDTSTNTAYMELSSLRSEDTAVYYCARSTYYRPLDYWGQGTLVTVSS
VL: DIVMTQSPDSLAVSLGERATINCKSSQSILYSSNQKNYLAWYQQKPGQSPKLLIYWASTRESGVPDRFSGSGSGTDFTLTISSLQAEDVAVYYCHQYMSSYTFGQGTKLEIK
notes: IgG form made by cloning VH and VL into the TCAE5.3 vector (human IgG1); also called APC-labeled mAb2-3

How the values were obtained:
[1] = target: T1, human CC chemokine receptor 4 (CCR4) (human, UniProt P51679 1-360); test: binding curve of FIG. 20B; cells not given
T1 construct: whole, on cells; also called hCCR4
T1 sequence (looked up): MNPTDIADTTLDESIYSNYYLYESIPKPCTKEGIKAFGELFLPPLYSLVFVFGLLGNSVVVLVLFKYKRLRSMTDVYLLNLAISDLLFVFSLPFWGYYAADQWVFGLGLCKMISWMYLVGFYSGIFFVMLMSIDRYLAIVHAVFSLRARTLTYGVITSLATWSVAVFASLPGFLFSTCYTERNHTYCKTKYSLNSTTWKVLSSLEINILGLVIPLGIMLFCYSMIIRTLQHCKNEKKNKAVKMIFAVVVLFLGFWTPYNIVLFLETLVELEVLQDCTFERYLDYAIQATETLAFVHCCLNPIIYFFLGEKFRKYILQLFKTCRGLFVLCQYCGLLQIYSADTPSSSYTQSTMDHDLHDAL

[2] = target: T1, human CC chemokine receptor 4 (CCR4); test: FACS titration (GMFI), 0 to 100 µg/mL in two-fold steps; cells not named in the legend
[3] = target: T1, human CC chemokine receptor 4 (CCR4); test: FACS, CCR4+ Mac-1 cells, dose dependent binding curve

Row | Binder | EC50 [1] [nM] | other results
1 | B1 | 2.19 | –
2 | B2 | – | EC50 (read off the curve) [2]: ~0.5 µg/mL
3 | B3 | – | EC50 [3]: 1.39 nM
4 | B4 | 0.35 | –
